From patent US20130177981A1

T1: Mcl-1, Q07820
T1 chain: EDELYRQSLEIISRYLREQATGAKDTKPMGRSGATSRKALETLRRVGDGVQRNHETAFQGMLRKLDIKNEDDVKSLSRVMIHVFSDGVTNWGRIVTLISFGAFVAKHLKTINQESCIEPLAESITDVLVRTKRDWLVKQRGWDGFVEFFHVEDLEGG


What was measured:
Mcl-1, Q07820 [1] = biological target: T1, Mcl-1, Q07820; test: direct-binding FP with the BODIPY-labeled analogue
Bcl-xL, Q07817 = test: direct-binding FP with the BODIPY-labeled analogue
Mcl-1, Q07820 [2] = biological target: T1, Mcl-1, Q07820; test: competition FP; displacement of the labeled Bak BH3 peptide

Bcl-xL, Q07817, sequence (Q07817 1-209): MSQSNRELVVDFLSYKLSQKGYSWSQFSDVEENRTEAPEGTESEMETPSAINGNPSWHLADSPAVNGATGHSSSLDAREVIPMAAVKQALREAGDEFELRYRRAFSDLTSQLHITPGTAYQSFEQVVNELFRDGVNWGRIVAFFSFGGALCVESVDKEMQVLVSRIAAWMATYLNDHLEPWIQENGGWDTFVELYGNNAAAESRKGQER

| Kd (Mcl-1, Q07820 [1]) | Kd (Bcl-xL, Q07817) | Ki (Mcl-1, Q07820 [2]) | Binder |
| --- | --- | --- | --- |
| 110 nM | 2.2 nM |  | EEQWAREIGAQLRRMADDLNAQYERR (peptide, UniProt Q9BXH1 130-155, looked up, modifications not checked) [BODIPY-TMR-labeled analog of Puma BH3 α/β-peptide 4′, Q9BXH1 130-155] |
|  |  | < 10 nM | EEQWAREIGAQLRRMADDLNAQYERR (peptide, UniProt Q9BXH1 130-155, looked up, modifications not checked) [Puma BH3 α-peptide 1′, Q9BXH1 130-155] |
| < 2 nM |  |  | EEQWAREIGAQLRRMADDLNAQYERR (peptide, UniProt Q9BXH1 130-155, looked up, modifications not checked) [BODIPY-TMR-labeled analog of Puma BH3 α-peptide 1′, Q9BXH1 130-155] |
